Test results taken from patent US20020142429.

Tests used:
[1] = target: rabbit reticulocyte eEF-2, P55823
[2] = target: Dictyostelium myosin (myosin heavy chains), P08799
Sequence of Dictyostelium myosin (myosin heavy chains), P08799 (P08799 whole entry): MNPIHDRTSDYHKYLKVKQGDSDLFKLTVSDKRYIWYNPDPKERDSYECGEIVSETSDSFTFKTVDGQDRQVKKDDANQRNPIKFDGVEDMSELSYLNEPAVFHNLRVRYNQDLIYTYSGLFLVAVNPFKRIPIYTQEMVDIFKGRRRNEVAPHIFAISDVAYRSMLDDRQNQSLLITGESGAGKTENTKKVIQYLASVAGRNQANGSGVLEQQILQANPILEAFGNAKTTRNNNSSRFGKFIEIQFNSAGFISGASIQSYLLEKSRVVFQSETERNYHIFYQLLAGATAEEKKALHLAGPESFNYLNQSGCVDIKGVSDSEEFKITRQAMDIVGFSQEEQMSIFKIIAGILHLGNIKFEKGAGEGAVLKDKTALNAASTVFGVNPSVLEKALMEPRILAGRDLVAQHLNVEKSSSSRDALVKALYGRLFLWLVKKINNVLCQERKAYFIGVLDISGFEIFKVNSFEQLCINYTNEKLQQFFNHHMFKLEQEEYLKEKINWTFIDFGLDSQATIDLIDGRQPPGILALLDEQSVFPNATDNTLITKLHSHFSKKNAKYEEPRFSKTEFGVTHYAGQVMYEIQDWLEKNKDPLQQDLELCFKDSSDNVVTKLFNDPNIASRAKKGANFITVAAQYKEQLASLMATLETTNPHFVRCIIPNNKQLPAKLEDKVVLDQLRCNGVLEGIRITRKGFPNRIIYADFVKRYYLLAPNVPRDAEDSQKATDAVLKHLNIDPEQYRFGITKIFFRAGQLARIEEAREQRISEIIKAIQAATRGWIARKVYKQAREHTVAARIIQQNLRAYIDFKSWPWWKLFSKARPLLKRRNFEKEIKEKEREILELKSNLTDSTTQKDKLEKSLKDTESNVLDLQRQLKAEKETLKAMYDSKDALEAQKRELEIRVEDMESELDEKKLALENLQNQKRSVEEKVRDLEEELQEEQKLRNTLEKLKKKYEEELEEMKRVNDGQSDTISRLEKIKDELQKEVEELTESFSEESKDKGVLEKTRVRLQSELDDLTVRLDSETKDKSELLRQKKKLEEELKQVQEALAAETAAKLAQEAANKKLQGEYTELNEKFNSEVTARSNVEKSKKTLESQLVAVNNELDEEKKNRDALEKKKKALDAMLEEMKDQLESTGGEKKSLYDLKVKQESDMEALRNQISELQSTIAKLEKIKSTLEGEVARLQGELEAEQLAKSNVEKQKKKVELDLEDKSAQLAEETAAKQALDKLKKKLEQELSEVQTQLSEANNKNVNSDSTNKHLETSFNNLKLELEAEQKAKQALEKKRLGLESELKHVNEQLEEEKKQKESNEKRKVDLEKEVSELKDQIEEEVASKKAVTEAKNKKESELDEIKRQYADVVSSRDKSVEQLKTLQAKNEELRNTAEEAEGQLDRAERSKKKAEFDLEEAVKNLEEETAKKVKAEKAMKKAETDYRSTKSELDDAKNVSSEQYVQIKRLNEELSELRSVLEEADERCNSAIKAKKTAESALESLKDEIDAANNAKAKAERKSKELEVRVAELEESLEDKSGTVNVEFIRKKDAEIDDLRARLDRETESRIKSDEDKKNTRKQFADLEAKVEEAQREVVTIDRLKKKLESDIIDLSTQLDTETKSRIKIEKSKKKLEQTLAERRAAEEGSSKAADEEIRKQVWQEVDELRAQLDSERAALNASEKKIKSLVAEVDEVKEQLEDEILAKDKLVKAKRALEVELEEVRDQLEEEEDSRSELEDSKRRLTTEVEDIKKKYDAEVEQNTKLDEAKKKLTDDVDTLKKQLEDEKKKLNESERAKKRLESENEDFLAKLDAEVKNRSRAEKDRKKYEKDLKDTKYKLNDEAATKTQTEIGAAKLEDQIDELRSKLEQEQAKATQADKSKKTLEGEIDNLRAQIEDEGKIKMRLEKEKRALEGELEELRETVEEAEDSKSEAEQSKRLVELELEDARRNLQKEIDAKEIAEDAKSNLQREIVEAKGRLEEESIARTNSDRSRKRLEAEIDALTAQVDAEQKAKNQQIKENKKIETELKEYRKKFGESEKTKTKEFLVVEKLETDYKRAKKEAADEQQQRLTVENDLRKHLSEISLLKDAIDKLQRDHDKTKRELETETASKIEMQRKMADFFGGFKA

B1: human eEF-2 kinase glutathione S-transferase fusion protein (protein)
chain: MADEDLIFRLEGVDGGQSPRAGHDGDSDGDSDDEEGYFICPITDDPSSNQNVNSKVNKYYSNLTKSERYSSSGSPANSFHFKEAWKHAIQKAKHMPDPWAEFHLEDIATERATRHRYNAVTGEWLDDEVLIKMASQPFGRGAMRECFRTKKLSNFLHAQQWKGASNYVAKRYIEPVDRDVYFEDVRLQMEAKLWGEEYNRHKPPKQVDIMQMCIIELKDRPGKPLFHLEHYIEGKYIKYNSNSGFVRDDNIRLTPQAFSHFTFERSGHQLIVVDIQGVGDLYTDPQIHTETGTDFGDGNLGVRGMALFFYSHACNRICESMGLAPFDLSPRERDAVNQNTKLLQSAKTILRGTEEKCGSPQVRTLSGSRPPLLRPLSENSGDENMSDVTFDSLPSSPSSATPHSQKLDHLHWPVFSDLDNMASRDHDHLDNHRESENSGDSGYPSEKRGELDDPEPREHGHSYSNRKYESDEDSLGSSGRVCVEKWNLLNSSRLHLPRASAVALEVQRLNALDLEKKIGKSILGKVHLAMVRYHEGGRFCEKGEEWDQESAVFHLEHAANLGELEAIVGLGLMYSQLPHHILADVSLKETEENKTKGFDYLLKAAEAGDRQSMILVARAFDSGQNLSPDRCQDWLEALHWYNTALEMTDCDEGGEYDGMQDEPRYMMLAREAEMLFTGGYGLEKDPQRSGDLYTQAAEAAMEAMKGRLANQYYQKAEEAWAQMEE
calmodulin
  phosphorylation of eEF-2 and autophosphorylation, dependence on calmodulin: the ability of the recombinant enzyme to phosphorylate eEF-2 and to undergo autophosphorylation are strictly calmodulin-dependent (data not shown)
[1]
  ability to phosphorylate eEF-2: All of the fusion eEF-2 kinase preparations were able to efficiently phosphorylate eEF-2 (data not shown)
  phosphorylation of eEF-2: the ability of the recombinant enzyme to phosphorylate eEF-2 and to undergo autophosphorylation are strictly calmodulin-dependent (data not shown)

B2: human eEF-2 kinase 6xHis fusion protein (protein)
chain: MADEDLIFRLEGVDGGQSPRAGHDGDSDGDSDDEEGYFICPITDDPSSNQNVNSKVNKYYSNLTKSERYSSSGSPANSFHFKEAWKHAIQKAKHMPDPWAEFHLEDIATERATRHRYNAVTGEWLDDEVLIKMASQPFGRGAMRECFRTKKLSNFLHAQQWKGASNYVAKRYIEPVDRDVYFEDVRLQMEAKLWGEEYNRHKPPKQVDIMQMCIIELKDRPGKPLFHLEHYIEGKYIKYNSNSGFVRDDNIRLTPQAFSHFTFERSGHQLIVVDIQGVGDLYTDPQIHTETGTDFGDGNLGVRGMALFFYSHACNRICESMGLAPFDLSPRERDAVNQNTKLLQSAKTILRGTEEKCGSPQVRTLSGSRPPLLRPLSENSGDENMSDVTFDSLPSSPSSATPHSQKLDHLHWPVFSDLDNMASRDHDHLDNHRESENSGDSGYPSEKRGELDDPEPREHGHSYSNRKYESDEDSLGSSGRVCVEKWNLLNSSRLHLPRASAVALEVQRLNALDLEKKIGKSILGKVHLAMVRYHEGGRFCEKGEEWDQESAVFHLEHAANLGELEAIVGLGLMYSQLPHHILADVSLKETEENKTKGFDYLLKAAEAGDRQSMILVARAFDSGQNLSPDRCQDWLEALHWYNTALEMTDCDEGGEYDGMQDEPRYMMLAREAEMLFTGGYGLEKDPQRSGDLYTQAAEAAMEAMKGRLANQYYQKAEEAWAQMEE
[1]
  ability to phosphorylate eEF-2: All of the fusion eEF-2 kinase preparations were able to efficiently phosphorylate eEF-2 (data not shown)

B3: human eEF-2 kinase thioredoxin fusion protein (protein)
chain: MADEDLIFRLEGVDGGQSPRAGHDGDSDGDSDDEEGYFICPITDDPSSNQNVNSKVNKYYSNLTKSERYSSSGSPANSFHFKEAWKHAIQKAKHMPDPWAEFHLEDIATERATRHRYNAVTGEWLDDEVLIKMASQPFGRGAMRECFRTKKLSNFLHAQQWKGASNYVAKRYIEPVDRDVYFEDVRLQMEAKLWGEEYNRHKPPKQVDIMQMCIIELKDRPGKPLFHLEHYIEGKYIKYNSNSGFVRDDNIRLTPQAFSHFTFERSGHQLIVVDIQGVGDLYTDPQIHTETGTDFGDGNLGVRGMALFFYSHACNRICESMGLAPFDLSPRERDAVNQNTKLLQSAKTILRGTEEKCGSPQVRTLSGSRPPLLRPLSENSGDENMSDVTFDSLPSSPSSATPHSQKLDHLHWPVFSDLDNMASRDHDHLDNHRESENSGDSGYPSEKRGELDDPEPREHGHSYSNRKYESDEDSLGSSGRVCVEKWNLLNSSRLHLPRASAVALEVQRLNALDLEKKIGKSILGKVHLAMVRYHEGGRFCEKGEEWDQESAVFHLEHAANLGELEAIVGLGLMYSQLPHHILADVSLKETEENKTKGFDYLLKAAEAGDRQSMILVARAFDSGQNLSPDRCQDWLEALHWYNTALEMTDCDEGGEYDGMQDEPRYMMLAREAEMLFTGGYGLEKDPQRSGDLYTQAAEAAMEAMKGRLANQYYQKAEEAWAQMEE
[1]
  ability to phosphorylate eEF-2: All of the fusion eEF-2 kinase preparations were able to efficiently phosphorylate eEF-2 (data not shown)

B4: recombinant C. elegans eEF-2 kinase (translation products of the mixture of Cefk-1 and Cefk-2) (protein)
chain: MTIDTTNESDNSPTNSPGLEASARTFSLNASKMVRITDDYADEVFIEQNDVVIEKPRMDPLHVRKLMETWRKAARRARTNYIDPWDEFNIHEYPVQRAKRYRYSAIRKQWTEDIVDVRLHPDSFARGAMRECYRLKKCSKHGTSQDWSSNYVAKRYICQVDRRVLFDDVRLQMDAKLWAEEYNRYNPPKKIDIVQMCVIEMIDVKGSPLYHLEHFIEGKYIKYNSNSGFVSNAARLTPQAFSHFTFERSGHQMMVVDIQGVGDLYTDPQIHTVVGTDYGDGNLGTRGMALFFHSHRCNDICETMDLSNFELSPPEIEATEVAMEVAAKQKKSCIVPPTVFEARRNRISSECVHVEHGISMDQLRKRKTLNQSSTDLSAKSHNEDCVCPECIPVVEQLCEPCSEDEEDEEEDYPRSEKSGNSQKSRRSRMSISTRSSGDESASRPRKCGFVDLNSLRQRHDSFRSSVGTYSMNSSRQTRDTEKDEFWKVLRKQSVPANILSLQLQQMAANLENDEDVPQVTGHQFSVLGQIHIDLSRYHELGRFVEVDSEHKEMLEGSENDARVPIKYDKQSAIFHLDIARKCGILEAVLTSAHIVLGLPHELLKEVTVDDLFPNGFGEQENGIRADKGQKPCDLEEFGSDLMEIAAEMGDKGAMLYMAHAYETGQHLGPNRRTDYKKSIDWYQRVVGFQEEEELDSDCGKTTFSSFAPLTRHEILAKMAEMYKEGGYGLNQDFERAYGLFNEAAEAAMEAMNGKLANKYYEKAEMCGE
calmodulin
  eEF-2 phosphorylation activity in the presence and absence of Ca2+ and calmodulin: The eEF-2 phosphorylation activity of the recombinant protein is Ca^2+/calmodulin-dependant
[1]
  eEF-2 kinase activity: phosphorylation of eEF-2 with [gamma-32P]ATP, SDS/PAGE and autoradiography: The translation products of the mixture of Cefk-1 and Cefk-2 are able to phosphorylate eEF-2

B5: recombinant human eEF-2 kinase (expressed in a coupled transcription/translation system) (protein)
chain: MADEDLIFRLEGVDGGQSPRAGHDGDSDGDSDDEEGYFICPITDDPSSNQNVNSKVNKYYSNLTKSERYSSSGSPANSFHFKEAWKHAIQKAKHMPDPWAEFHLEDIATERATRHRYNAVTGEWLDDEVLIKMASQPFGRGAMRECFRTKKLSNFLHAQQWKGASNYVAKRYIEPVDRDVYFEDVRLQMEAKLWGEEYNRHKPPKQVDIMQMCIIELKDRPGKPLFHLEHYIEGKYIKYNSNSGFVRDDNIRLTPQAFSHFTFERSGHQLIVVDIQGVGDLYTDPQIHTETGTDFGDGNLGVRGMALFFYSHACNRICESMGLAPFDLSPRERDAVNQNTKLLQSAKTILRGTEEKCGSPQVRTLSGSRPPLLRPLSENSGDENMSDVTFDSLPSSPSSATPHSQKLDHLHWPVFSDLDNMASRDHDHLDNHRESENSGDSGYPSEKRGELDDPEPREHGHSYSNRKYESDEDSLGSSGRVCVEKWNLLNSSRLHLPRASAVALEVQRLNALDLEKKIGKSILGKVHLAMVRYHEGGRFCEKGEEWDQESAVFHLEHAANLGELEAIVGLGLMYSQLPHHILADVSLKETEENKTKGFDYLLKAAEAGDRQSMILVARAFDSGQNLSPDRCQDWLEALHWYNTALEMTDCDEGGEYDGMQDEPRYMMLAREAEMLFTGGYGLEKDPQRSGDLYTQAAEAAMEAMKGRLANQYYQKAEEAWAQMEE
calmodulin
  eEF-2 kinase activity in the presence and absence of Ca2+ and calmodulin: the recombinant human eEF-2 kinase activity was strictly Ca^2+/calmodulin-dependant

B6: myosin heavy chain kinase A (MHCK A) from Dictyostelium (protein)
chain: MFNIKKRKESITGIPPINVNSPQSVPLSGTLQSPLITPNSPNFVSRQCPFKKFGCSSFLVSKAEFDNHLKDDAQFHLQLAVEKFDHQFDLHTQLMAHFTEQMEDQLEKTMKVVRNHTDSLGGNVQTKLDEGIEKCMAFAKKVEQQQQQLAKRLITQQIQEKKSTSSPLVKGGISGGGGSGGDDSFDGANISSMSTSKQELQQELQSLSIKMKKELTELSDELSQKLERSTGNIDIKIKRIEGEVNEKIDKRQLVSTIDDSIGKKTDSIGYTLESSIIKKVEEKEKKKSEQNQLLFDSKIESLKDKIKIIETQQLDTSSEVRKLKLESTSSGNLMAGLNGTSGRPSSSSHFIPSSVSAAANNINKNEIMEEVKKVEEKLQKKIREEIDNTKSELSKVERSVKDNRSEIEGLEKDCKNQFDKQDNKIKQVEDDLKKSDSLLLLMQNNLKKYNEFVDRERDRESERLKLQDSIKRLEQNQKKIEAEIQEGNEQVERVLREEASISPISSVPKSPITTKRSSIILNSPPMTSQQSSPKIQDLLSSSGSSSVSGINISSETGEMGILWEFDPIINKWIRLSMKLKVERKPFAEGALREAYHTVSLGVGTDENYPLGTTTKLFPPIEMISPISKNNEAMTQLKNGTKFVLKLYKKEAEQQASRELYFEDVKMQMVCRDWGNKFNQKKPPKKIEFLMSWVVELIDRSPSSNGQPILCSIEPLLVGEFKKNNSNYGAVLTNRSTPQAFSHFTYELSNKQMIVVDIQGVDDLYTDPQIHTPDGKGFGLGNLGKAGINKFITTHKCNAVCALLDLDVKLGGVLSGNNKKQLQQGTMVMPDILPELMPSDNTIKVGAKQLPKAEFSKKDLKCVSTIQSFRERVNSIAFFDNQKLLCAGYGDGTYRVFDVNDNWKCLYTVNGHRKSIESIACNSNYIFTSSPDNTIKVHIIRSGNTKCIETLVGHTGEVNCVVANEKYLFSCSYDKTIKVWDLSTFKEIKSFEGVHTKYIKTLALSGRYLFSGGNDQIIYVWDTETLSMLFNMQGHEDWVLSLHCTASYLFSTSKDNVIKIWDLSNFSCIDTLKGHWNSVSSCVVKDRYLYSGSEDNSIKVWDLDTLECVYTIPKSHSLGVKCLMVFNNQIISAAFDGSIKVWEWQSK
[2]
  phosphorylation assay (substrate specificity), 10 min: each of these kinases is specific for their respective substrates
[1]
  phosphorylation assay (substrate specificity), 10 min: MHCK A cannot phosphorylate eEF-2
